This note sets out measurements from paper PMC10630445, “RNA recognition by Npl3p reveals U2 snRNA-binding compatible with a chaperone role during splicing”.

Series [1] addresses T1, Npl3 RRM1/2 (Saccharomyces cerevisiae, UniProt Q01560 114-282).
T1 sequence: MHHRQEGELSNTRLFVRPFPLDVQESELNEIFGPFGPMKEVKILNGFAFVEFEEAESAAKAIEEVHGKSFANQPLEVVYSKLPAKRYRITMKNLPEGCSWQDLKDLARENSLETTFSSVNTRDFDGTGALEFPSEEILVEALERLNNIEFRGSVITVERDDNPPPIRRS
In words: ITC; ITC at 40 °C in NMR buffer: RRM1 and RRM1/2 25 mM Na2HPO4, 25 mM NaH2PO4 pH 6.9; RRM2 100 mM NaCl, 20 mM NaH2PO4 pH 5.5; NMR titrations at 40 °C (U2 SL I 1D spectra at 303 K). The following applies: protein: recombinant; (pET28a, nickel purification).

The target of another series is T2, Npl3 RRM2 (Saccharomyces cerevisiae, UniProt Q01560 193-282).
T2 sequence: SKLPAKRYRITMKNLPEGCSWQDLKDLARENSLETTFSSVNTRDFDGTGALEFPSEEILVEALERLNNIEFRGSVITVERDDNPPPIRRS
The series is described as above. The following applies: protein: recombinant; (pET28a, nickel purification).

Series [2] deals with T3, Npl3 RRM1/2 linker 3xGGGGS (Saccharomyces cerevisiae, UniProt Q01560 114-194+=GGGGSGGGGSGGGGS+198-282, internal_change).
T3 sequence: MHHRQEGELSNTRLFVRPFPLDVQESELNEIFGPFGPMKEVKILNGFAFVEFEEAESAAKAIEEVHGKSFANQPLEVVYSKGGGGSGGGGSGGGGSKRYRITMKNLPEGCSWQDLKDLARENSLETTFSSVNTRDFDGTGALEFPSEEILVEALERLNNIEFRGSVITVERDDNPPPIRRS
Described as above. Particulars: protein: recombinant; (pET28a).

A further series has as its target T4, Npl3 RRM1/2 F229A (Saccharomyces cerevisiae, UniProt Q01560 114-282, F229A).
T4 sequence: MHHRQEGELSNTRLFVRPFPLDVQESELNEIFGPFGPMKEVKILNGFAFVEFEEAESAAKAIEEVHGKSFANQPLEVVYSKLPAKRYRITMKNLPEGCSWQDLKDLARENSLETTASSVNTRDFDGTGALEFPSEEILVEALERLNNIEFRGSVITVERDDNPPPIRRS
The description is as above. Particulars: protein: recombinant; (pET28a).

The target in the next series is T5, Npl3 RRM1/2 Q214A+K217A (Saccharomyces cerevisiae, UniProt Q01560 114-282, Q214A;K217A).
T5 sequence: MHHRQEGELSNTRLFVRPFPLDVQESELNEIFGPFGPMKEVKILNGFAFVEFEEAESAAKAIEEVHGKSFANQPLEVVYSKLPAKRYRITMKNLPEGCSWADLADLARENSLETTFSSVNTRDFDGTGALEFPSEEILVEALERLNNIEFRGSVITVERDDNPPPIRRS
The description is as above. Particulars: protein: recombinant; (pET28a).

A further series deals with T6, Npl3 RRM1/2 Q214A (Saccharomyces cerevisiae, UniProt Q01560 114-282, Q214A).
T6 sequence: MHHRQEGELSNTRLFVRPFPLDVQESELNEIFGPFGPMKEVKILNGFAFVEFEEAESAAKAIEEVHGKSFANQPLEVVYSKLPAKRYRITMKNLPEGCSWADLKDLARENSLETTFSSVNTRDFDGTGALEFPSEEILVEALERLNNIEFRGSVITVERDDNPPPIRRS
Described as above. The following applies: protein: recombinant; (pET28a).

In a further series the target is T7, Npl3 RRM1/2 R130A (Saccharomyces cerevisiae, UniProt Q01560 114-282, R130A).
T7 sequence: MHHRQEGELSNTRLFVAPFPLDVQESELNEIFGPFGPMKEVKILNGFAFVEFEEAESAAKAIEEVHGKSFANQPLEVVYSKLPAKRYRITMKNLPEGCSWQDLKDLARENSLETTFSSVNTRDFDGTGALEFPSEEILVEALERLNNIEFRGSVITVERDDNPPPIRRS
The series is described as above. The following applies: protein: recombinant; (pET28a).

A further series concerns the target T8, Npl3 RRM1/2 linker GGG (Saccharomyces cerevisiae, UniProt Q01560 114-282, L195G;P196G;A197G).
T8 sequence: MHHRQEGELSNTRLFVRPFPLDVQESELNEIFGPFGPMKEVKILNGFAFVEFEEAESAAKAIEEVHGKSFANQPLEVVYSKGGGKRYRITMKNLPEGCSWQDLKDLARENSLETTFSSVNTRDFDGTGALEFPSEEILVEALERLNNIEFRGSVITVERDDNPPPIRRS
The series is described as above. The following applies: protein: recombinant; (pET28a).

A further series has as its target T9, Npl3 RRM1/2 R126A (Saccharomyces cerevisiae, UniProt Q01560 114-282, R126A).
T9 sequence: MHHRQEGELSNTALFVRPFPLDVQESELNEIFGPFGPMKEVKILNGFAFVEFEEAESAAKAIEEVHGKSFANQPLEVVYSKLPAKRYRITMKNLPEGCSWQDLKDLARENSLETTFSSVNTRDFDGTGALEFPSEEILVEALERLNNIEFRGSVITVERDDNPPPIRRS
The series is described as above. The following applies: protein: recombinant; (pET28a).

For another series, the target named is T10, Npl3 RRM1/2 F128A (Saccharomyces cerevisiae, UniProt Q01560 114-282, F128A).
T10 sequence: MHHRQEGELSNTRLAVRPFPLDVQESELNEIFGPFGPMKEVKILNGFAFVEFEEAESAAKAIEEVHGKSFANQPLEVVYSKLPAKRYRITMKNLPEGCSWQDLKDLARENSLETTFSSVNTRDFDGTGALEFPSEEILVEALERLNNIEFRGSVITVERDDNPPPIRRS
The description is as above. Particulars: protein: recombinant; (pET28a).

Another series has as its target T11, Npl3 RRM1/2 K217A (Saccharomyces cerevisiae, UniProt Q01560 114-282, K217A).
T11 sequence: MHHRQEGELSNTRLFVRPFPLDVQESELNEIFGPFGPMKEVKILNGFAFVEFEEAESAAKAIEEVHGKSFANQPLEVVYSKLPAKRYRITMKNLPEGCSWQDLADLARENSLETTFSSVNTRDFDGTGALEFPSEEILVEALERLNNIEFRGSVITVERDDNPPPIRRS
The description is as above. The following applies: protein: recombinant; (pET28a).

The target in series [3] is T12, Npl3 RRM1 (Saccharomyces cerevisiae, UniProt Q01560 114-201).
T12 sequence: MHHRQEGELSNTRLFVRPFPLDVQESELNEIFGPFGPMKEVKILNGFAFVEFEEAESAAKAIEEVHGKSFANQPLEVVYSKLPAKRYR
Nature of the series: NMR titration; ITC at 40 °C in NMR buffer: RRM1 and RRM1/2 25 mM Na2HPO4, 25 mM NaH2PO4 pH 6.9; RRM2 100 mM NaCl, 20 mM NaH2PO4 pH 5.5; NMR titrations at 40 °C (U2 SL I 1D spectra at 303 K). The following applies: protein: recombinant; (pET28a, nickel purification).

Series [4] concerns the target T1, Npl3 RRM1/2. In words: NMR titration; UV melting; protein destabilizes the stem; Tm decreased; ITC at 40 °C in NMR buffer: RRM1 and RRM1/2 25 mM Na2HPO4, 25 mM NaH2PO4 pH 6.9; RRM2 100 mM NaCl, 20 mM NaH2PO4 pH 5.5; NMR titrations at 40 °C (U2 SL I 1D spectra at 303 K). The following applies: protein: recombinant; (pET28a, nickel purification); hairpin.
Series [5] concerns the target T12, Npl3 RRM1. In words: ITC; ITC at 40 °C in NMR buffer: RRM1 and RRM1/2 25 mM Na2HPO4, 25 mM NaH2PO4 pH 6.9; RRM2 100 mM NaCl, 20 mM NaH2PO4 pH 5.5; NMR titrations at 40 °C (U2 SL I 1D spectra at 303 K). Particulars: protein: recombinant; (pET28a, nickel purification). A general note: Isothermal titration calorimetry measures the heat released or taken up as one component is titrated into another.

B1: G6A RNA (ssRNA)
RNA: AUCCAAUGGAA
In general, Kd refers to the free concentration of one partner at which half of the binding sites on the other are occupied at equilibrium, for simple one-to-one binding. For the molecule B1, the Kd with Npl3 RRM1/2 [1] came out at 2200 nM.

B2: RRM2 site RNA (ssRNA)
RNA: AGUGGAC
Regarding B2, the Kd with Npl3 RRM2 amounted to 2200 nM.

B3: inverted motif RNA (ssRNA)
RNA: AUGGAGUCCAA
As to B3, the Kd with Npl3 RRM1/2 [1] was 1200 nM.

B4: C4U RNA (ssRNA)
RNA: AUCUAGUGGAA
In the case of B4, the Kd with Npl3 RRM1/2 [1] was determined as 1600 nM.

B5: C3U RNA (ssRNA)
RNA: AUUCAGUGGAA
Regarding B5, in the series with Npl3 RRM1/2 [1], the Kd stood at 1800 nM.

B6: split-iCRAC consensus RNA (ssRNA)
RNA: AUCCAGUGGAA
For the molecule B6, the Kd in series [2] was determined as 6.8 µM; with Npl3 RRM1/2 F229A, 2300 nM; with Npl3 RRM1/2 Q214A+K217A it was 15.3 µM; with Npl3 RRM1/2 Q214A it was 1700 nM; with Npl3 RRM1/2 R130A, 900 nM; in the series with Npl3 RRM1/2 linker GGG, 3.8 µM. Moreover, the Kd in the series with Npl3 RRM1/2 R126A is 10.7 µM; in the series with Npl3 RRM1/2 F128A, 12.8 µM; with Npl3 RRM1/2 K217A, 7.5 µM; with Npl3 RRM1/2 [1] it was 500 nM.

B7: G8A RNA (ssRNA)
RNA: AUCCAGUAGAA
Regarding B7, the Kd in the series with Npl3 RRM1/2 [1] turned out to be 1900 nM.

B8: polyU 8mer RNA (ssRNA)
RNA: UUUUUUUU
For B8, the binding result in the series with Npl3 RRM1 [3] is on record as “no binding”.

B9: G9A RNA (ssRNA)
RNA: AUCCAGUGAAA
As for B9, the Kd with Npl3 RRM1/2 [1] came to 2500 nM.

B10: U2 snRNA stem-loop I (structured_RNA)
RNA: GAGCGAAUCUCUUUGCCUUUUGGCUUAGAUC
In the case of B10, the binding result with Npl3 RRM1/2 [4] is “binds”.

B11: RRM1 site RNA (ssRNA)
RNA: AUCCAA
On to B11, for which the Kd in the series with Npl3 RRM1 [5] was about 16.2 µM.
